Measurements taken from patent publication US20060281901.

Molecular target: ubiquitin-amyloid-β peptide fusion protein (H6Ub-Aβ42)

B1: yeast ubiquitin hydrolase-1 (YUH-1) (protein)
chain: MSGENRAVVPIESNPEVFTNFAHKLGLKNEWAYFDIYSLTEPELLAFLPRPVKAIVLLFPINEDRKSSTSQQITSSYDVIWFKQSVKNACGLYAILHSLSNNQSLLEPGSDLDNFLKSQSDTSSSKNRFDDVTTDQFVLNVIKENVQTFSTGQSEAPEATADTNLHYITYVEENGGIFELDGRNLSGPLYLGKSDPTATDLIEQELVRVRVASYMENANEEDVLNFAMLGLGPNWE
  electrophoresis with Coomassie staining of the enzyme reactant (cleavage of the fusion protein by ubiquitin hydrolase): the binding site between ubiquitin and amyloid-β peptide in the fusion protein is precisely cut by the action of ubiquitin hydrolase and the fusion protein is separated into a ubiquitin fragment and an amyloid-β peptide fragment
